According to IntAct's records for PubMed 34029587:

How the values were obtained:
anm1_human PRMT1 = anm1_human PRMT1 (UniProt Q99873)
G3BP1 = G3BP1 (UniProt Q13283)
UniProt Q13283, sequence (Q13283 whole entry, looked up): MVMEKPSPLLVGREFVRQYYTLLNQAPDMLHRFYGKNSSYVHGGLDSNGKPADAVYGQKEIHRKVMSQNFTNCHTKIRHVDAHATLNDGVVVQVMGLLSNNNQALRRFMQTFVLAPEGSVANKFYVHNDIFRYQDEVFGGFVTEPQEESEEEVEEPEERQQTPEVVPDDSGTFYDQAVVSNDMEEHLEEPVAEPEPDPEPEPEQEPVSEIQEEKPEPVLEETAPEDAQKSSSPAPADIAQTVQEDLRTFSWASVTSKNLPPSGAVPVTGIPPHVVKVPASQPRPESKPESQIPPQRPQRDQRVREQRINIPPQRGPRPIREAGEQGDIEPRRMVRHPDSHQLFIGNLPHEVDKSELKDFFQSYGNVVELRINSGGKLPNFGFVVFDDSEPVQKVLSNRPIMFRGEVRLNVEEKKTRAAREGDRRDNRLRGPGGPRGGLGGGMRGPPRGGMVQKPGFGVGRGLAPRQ

UniProt Q99873, sequence (Q99873 whole entry, looked up): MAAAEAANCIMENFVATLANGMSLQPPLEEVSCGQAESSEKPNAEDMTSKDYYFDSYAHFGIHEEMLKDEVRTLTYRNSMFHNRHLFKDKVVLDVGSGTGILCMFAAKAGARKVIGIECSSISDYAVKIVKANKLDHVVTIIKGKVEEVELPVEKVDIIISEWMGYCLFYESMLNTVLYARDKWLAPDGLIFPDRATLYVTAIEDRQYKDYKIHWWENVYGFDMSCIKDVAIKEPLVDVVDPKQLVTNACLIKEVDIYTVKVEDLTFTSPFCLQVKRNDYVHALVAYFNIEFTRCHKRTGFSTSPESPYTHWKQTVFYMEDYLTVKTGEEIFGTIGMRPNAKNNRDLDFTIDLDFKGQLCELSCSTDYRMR

Row | Substance | effect of a mutation on the interaction (anm1_human PRMT1) | effect of a mutation on the interaction (G3BP1)
1 | Nucleoprotein (SARS-CoV-2) (from UniProt P0DTC9) R68K | with no effect | 
2 | Nucleoprotein (SARS-CoV-2) (from UniProt P0DTC9) R177K |  | with no effect
3 | Nucleoprotein (SARS-CoV-2) (from UniProt P0DTC9) R203K | with no effect | 
